Data from US20230416365A1 (Hoffmann-La Roche, published 2023).
Each block holds one binder with its values, some of them ahead of it.

What was measured:
[1] = biological target: T1, human CD28 on CHO cells (parental cell line CHO-k1 ATCC #CCL-61, modified to stably overexpress human CD28) (human, UniProt P10747 19-220); experiment: flow cytometry on CHO-k1 cells expressing human CD28, PE anti-human secondary antibody, MFI
T1 construct: also called hu CD28; CHO-hCD28

[2] = biological target: T2, human HER3 on T-47D cells (human, UniProt P21860 20-1342); experiment: flow cytometry on T-47D cells, PE anti-human secondary antibody, MFI
T2 construct: also called ErbB3

[3] = biological target: T1, human CD28 on CHO cells (parental cell …); experiment: flow cytometry on CHO-k1 cells expressing human CD28, PE anti-human secondary antibody, MFI; remark: listed apart in the source
[4] = biological target: T3, human FAP on 3T3-huFAP cells (clone 19) (human, UniProt Q12884 1-760); experiment: flow cytometry on 3T3-huFAP cells, PE anti-human secondary antibody, median fluorescence intensity
[5] = biological target: T3, human FAP on 3T3-huFAP cells (clone 19); experiment: flow cytometry on 3T3-huFAP cells, median fluorescence intensity
[6] = biological target: T1, human CD28 on CHO cells (parental cell …); experiment: flow cytometry on CHO-hCD28 cells
[7] = biological target: T4, human GPRC5D on CHO-hGPRC5D cells (human, UniProt Q9NZD1 1-345); experiment: flow cytometry on CHO huGPRC5D cells, AF488 anti-human IgG Fc secondary
T4 construct: also called CHO huGPRC5D L2

[8] = biological target: T5, human CEA (CEACAM5), form in the assay not stated (human, UniProt P06731 35-685, limits assumed); experiment: SPR
T5 sequence: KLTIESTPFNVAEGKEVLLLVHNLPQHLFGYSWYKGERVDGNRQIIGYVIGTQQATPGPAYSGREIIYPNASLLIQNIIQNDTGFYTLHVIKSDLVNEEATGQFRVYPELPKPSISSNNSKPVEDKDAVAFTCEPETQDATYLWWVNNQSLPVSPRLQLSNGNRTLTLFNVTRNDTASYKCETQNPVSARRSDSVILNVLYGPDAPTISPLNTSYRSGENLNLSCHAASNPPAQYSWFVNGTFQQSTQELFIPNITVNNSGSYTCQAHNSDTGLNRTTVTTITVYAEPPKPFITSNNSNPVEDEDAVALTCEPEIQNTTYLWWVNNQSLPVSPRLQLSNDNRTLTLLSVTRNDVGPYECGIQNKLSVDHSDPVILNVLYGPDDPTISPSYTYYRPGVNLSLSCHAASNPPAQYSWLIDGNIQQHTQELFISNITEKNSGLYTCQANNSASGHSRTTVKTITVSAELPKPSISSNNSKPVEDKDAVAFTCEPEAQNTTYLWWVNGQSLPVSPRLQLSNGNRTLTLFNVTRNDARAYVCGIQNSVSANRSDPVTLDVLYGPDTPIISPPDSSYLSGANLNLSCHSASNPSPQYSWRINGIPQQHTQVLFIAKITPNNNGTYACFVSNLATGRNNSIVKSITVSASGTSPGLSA

B1: EpCAM (MT201)-CD28 (SA_Variant 15) 1+1 format (Molecule 14A) (bispecific antibody, human IgG1, kappa, L234A L235A)
heavy 1: not shown
light 1: QVQLVQSGAEVKKPGASVKVSCKASGYTFTSYYIHWVRQAPGQGLEWIGSIYPGNVQTNYNEKFKDRATLTVDTSISTAYMELSRLRSDDTAVYFCTRSHYGLDWNFDVWGQGTTVTVSSASVAAPSVFIFPPSDEQLKSGTASVVCLLNNFYPREAKVQWKVDNALQSGNSQESVTEQDSKDSTYSLSSTLTLSKADYEKHKVYACEVTHQGLSSPVTKSFNRGEC
heavy 2: not shown
light 2: ELQMTQSPSSLSASVGDRVTITCRTSQSISSYLNWYQQKPGQPPKLLIYWASTRESGVPDRFSGSGSGTDFTLTISSLQPEDSATYYCQQSYDIPYTFGQGTKLEIKRTVAAPSVFIFPPSDRKLKSGTASVVCLLNNFYPREAKVQWKVDNALQSGNSQESVTEQDSKDSTYSLSSTLTLSKADYEKHKVYACEVTHQGLSSPVTKSFNRGEC
notes: huIgG1 PG-LALA CrossFab; also called P1AE9051; EpCAM-CD28
EC50 (read off the curve) [1]: ~8 nM

B2: HER3(lumretuzumab)-CD28 (SA_Variant 15) 1+1 format (Molecule 14B) (bispecific antibody, human IgG1, kappa, L234A L235A)
heavy 1: not shown
light 1: not shown
heavy 2: DIVMTQSPDSLAVSLGERATINCKSSQSVLNSGNQKNYLTWYQQKPGQPPKLLIYWASTRESGVPDRFSGSGSGTDFTLTISSLQAEDVAVYYCQSDYSYPYTFGQGTKLEIKSSASTKGPSVFPLAPSSKSTSGGTAALGCLVKDYFPEPVTVSWNSGALTSGVHTFPAVLQSSGLYSLSSVVTVPSSSLGTQTYICNVNHKPSNTKVDKKVEPKSCDKTHTCPPCPAPEAAGGPSVFLFPPKPKDTLMISRTPEVTCVVVDVSHEDPEVKFNWYVDGVEVHNAKTKPREEQYNSTYRVVSVLTVLHQDWLNGKEYKCKVSNKALGAPIEKTISKAKGQPREPQVCTLPPSRDELTKNQVSLSCAVKGFYPSDIAVEWESNGQPENNYKTTPPVLDSDGSFFLVSKLTVDKSRWQQGNVFSCSVMHEALHNHYTQKSLSLSP
light 2: QVQLVQSGAEVKKPGASVKVSCKASGYTFRSSYISWVRQAPGQGLEWMGWIYAGTGSPSYNQKLQGRVTMTTDTSTSTAYMELRSLRSDDTAVYYCARHRDYYSNSLTYWGQGTLVTVSSASVAAPSVFIFPPSDEQLKSGTASVVCLLNNFYPREAKVQWKVDNALQSGNSQESVTEQDSKDSTYSLSSTLTLSKADYEKHKVYACEVTHQGLSSPVTKSFNRGEC
notes: huIgG1 PG-LALA CrossFab; also called P1AF0151; HER3-CD28
EC50 (read off the curve) [2]: ~1 nM
binding result [3]: binds

B3: FAP-CD28SA 2+2 (P1AD4493) (bispecific antibody, human IgG1, kappa, L234A L235A)
CD28(SA) light chain VL-CL RK: not shown
heavy chain CD28(SA) VHCH1 EE - Fc PGLALA - FAP(4B9) VHCL: not shown
FAP(4B9) VLCH1: EIVLTQSPGTLSLSPGERATLSCRASQSVTSSYLAWYQQKPGQAPRLLINVGSRRATGIPDRFSGSGSGTDFTLTISRLEPEDFAVYYCQQGIMLPPTFGQGTKVEIKSSASTKGPSVFPLAPSSKSTSGGTAALGCLVKDYFPEPVTVSWNSGALTSGVHTFPAVLQSSGLYSLSSVVTVPSSSLGTQTYICNVNHKPSNTKVDKKVEPKSCD
notes: bivalent for CD28 and bivalent for FAP; copy numbers follow from the 2+2 format; also called Molecule F; FAP(4B9)-CD28(SA) 2+2
EC50 (read off the curve) [4]: ~2 nM
EC50 (read off the curve) [5]: ~2 nM

B4: GPRC5D (5E11)-CD28 (SA_Variant 15) 1+1 format (Molecule 16A) (bispecific antibody, human IgG1, kappa, L234A L235A)
heavy 1: not shown
light 1: QVQLVQSGAEVKKPGASVKVSCKASGYTFTSYYIHWVRQAPGQGLEWIGSIYPGNVQTNYNEKFKDRATLTVDTSISTAYMELSRLRSDDTAVYFCTRSHYGLDWNFDVWGQGTTVTVSSASVAAPSVFIFPPSDEQLKSGTASVVCLLNNFYPREAKVQWKVDNALQSGNSQESVTEQDSKDSTYSLSSTLTLSKADYEKHKVYACEVTHQGLSSPVTKSFNRGEC
heavy 2: EVQLLESGGGLVQPGGSLRLSCAASGFTFSKYAMAWVRQAPGKGLEWVASISTGGVNTYYADSVKGRFTISRDNSKNTLYLQMNSLRAEDTAVYYCATHTGDYFDYWGQGTMVTVSSASTKGPSVFPLAPSSKSTSGGTAALGCLVEDYFPEPVTVSWNSGALTSGVHTFPAVLQSSGLYSLSSVVTVPSSSLGTQTYICNVNHKPSNTKVDEKVEPKSCDKTHTCPPCPAPEAAGGPSVFLFPPKPKDTLMISRTPEVTCVVVDVSHEDPEVKFNWYVDGVEVHNAKTKPREEQYNSTYRVVSVLTVLHQDWLNGKEYKCKVSNKALGAPIEKTISKAKGQPREPQVCTLPPSRDELTKNQVSLSCAVKGFYPSDIAVEWESNGQPENNYKTTPPVLDSDGSFFLVSKLTVDKSRWQQGNVFSCSVMHEALHNHYTQKSLSLSP
light 2: EIVLTQSPGTLSLSPGERATLSCRASQSVSISGINLMNWYQQKPGQQPKLLIYHASILASGIPDRFSGSGSGTDFTLTISRLEPEDFAVYYCQQTRESPLTFGQGTRLEIKRTVAAPSVFIFPPSDRKLKSGTASVVCLLNNFYPREAKVQWKVDNALQSGNSQESVTEQDSKDSTYSLSSTLTLSKADYEKHKVYACEVTHQGLSSPVTKSFNRGEC
notes: huIgG1 PG-LALA CrossFab; also called P1AF1272
EC50 [6]: 4.7 to 5.2 nM
binding result [7]: binds

Next, values leading:

binding result [5]: binds
B5: FAP-CD28 1+4 (bispecific antibody, human IgG1, kappa, L234A L235A)
CD28(SA) light chain: not shown
heavy chain CD28(SA) VHCH-VHCH - Fc knob - FAP(4B9) VH: not shown
heavy chain CD28(SA) VHCH-VHCH - Fc hole - FAP(4B9) VL: QVQLVQSGAEVKKPGASVKVSCKASGYTFTSYYIHWVRQAPGQGLEWIGCIYPGNVNTNYNEKFKDRATLTVDTSISTAYMELSRLRSDDTAVYFCTRSHYGLDWNFDVWGQGTTVTVSSASTKGPSVFPLAPSSKSTSGGTAALGCLVKDYFPEPVTVSWNSGALTSGVHTFPAVLQSSGLYSLSSVVTVPSSSLGTQTYICNVNHKPSNTKVDKKVEPKSCDGGGGSGGGGSQVQLVQSGAEVKKPGASVKVSCKASGYTFTSYYIHWVRQAPGQGLEWIGCIYPGNVNTNYNEKFKDRATLTVDTSISTAYMELSRLRSDDTAVYFCTRSHYGLDWNFDVWGQGTTVTVSSASTKGPSVFPLAPSSKSTSGGTAALGCLVKDYFPEPVTVSWNSGALTSGVHTFPAVLQSSGLYSLSSVVTVPSSSLGTQTYICNVNHKPSNTKVDKKVEPKSCDKTHTCPPCPAPEAAGGPSVFLFPPKPKDTLMISRTPEVTCVVVDVSHEDPEVKFNWYVDGVEVHNAKTKPREEQYNSTYRVVSVLTVLHQDWLNGKEYKCKVSNKALGAPIEKTISKAKGQPREPQVCTLPPSRDELTKNQVSLSCAVKGFYPSDIAVEWESNGQPENNYKTTPPVLDSDGSFFLVSKLTVDKSRWQQGNVFSCSVMHEALHNHYTQKSLSLSPGGGGGSGGGGSGGGGSGGGGSEIVLTQSPGTLSLSPGERATLSCRASQSVTSSYLAWYQQKPGQAPRLLINVGSRRATGIPDRFSGSGSGTDFTLTISRLEPEDFAVYYCQQGIMLPPTFGQGTKVEIK
notes: tetravalent for CD28, monovalent for FAP; also called Molecule D; FAP(4B9)-CD28(SA) 1+4

Kd [8]: ~0.8 nM
B6: murine CEA antibody A5B7 (parental) (antibody, V domains shown)
VH: EVKLVESGGGLVQPGGSLRLSCATSGFTFTDYYMNWVRQPPGKALEWLGFIGNKANGYTTEYSASVKGRFTISRDKSQSILYLQMNTLRAEDSATYYCTRDRGLRFYFDYWGQGTTLTVSS
VL: QTVLSQSPAILSASPGEKVTMTCRASSSVTYIHWYQQKPGSSPKSWIYATSNLASGVPARFSGSGSGTSYSLTISRVEAEDAATYYCQHWSSKPPTFGGGTKLEIK
notes: also called parental murine A5B7 antibody; parental chimeric antibody

Kd [8]: ~2.5 nM
B7: humanized CEA antibody A5H1EL1D (format in the assay not stated) (antibody, V domains shown)
VH: EVQLLESGGGLVQPGGSLRLSCAASGFTFTDYYMNWVRQAPGKGLEWLGFIGNKANAYTTEYSASVKGRFTISRDKSKNTLYLQMNSLRAEDTATYYCTRDRGLRFYFDYWGQGTTVTVSS
VL: EIVLTQSPATLSLSPGERATLSCRASSSVTYIHWYQQKPGQAPRSWIYATSNLASGIPARFSGSGSGTDFTLTISSLEPEDFAVYYCQHWSSKPPTFGQGTKLEIK
notes: heavy chain with VH variant 3-23A5-1E and Ckappa light chain with VL variant A5-L1D; also called huA5B7
